{"source": "paper PMC10498669", "molecular_target": "AAV8 VP3 of the VP3-only capsid (VLP-0) (adeno-associated virus serotype 8)", "assay": "native MS; high-resolution ensemble native MS of purified capsids; 75 mM ammonium acetate pH 7.5; Orbitrap Q Exactive UHMR, xenon collision gas, positive ion mode; spectra compared with simulations of stochastic assembly"}
{"substance": "AAV8 VP3 of the VP3-only capsid (VLP-0) (natural protein)", "values": [{"measurement": "stoichiometry N", "value": 60}]}
